In the DeepSol protein solubility set:

Experiment: soluble on expression in E. coli; label from the status in PepcDB or PDB records
With “MSSIVEHVVLFKLNDDDVDSGKINSMVNGINELVNLDQVLHLYCGSIHRLITTTASDFTHVLHSRYRSKEDLNAYAIHPDHVRVVKESESIREDIMAVDWIAEQAPEALAPPLGSIGKITLLKLKENVMEEAKLEIMEVMKEKFEGIDQITVGENFSPGRSKDFSIGSISYFRDLGEIEAVDDQMKLQNDKIRDYVDDTIVVEFNVPSSS” the “soluble on expression in E. coli” value was “soluble”.
For “MGKALLIVNPSSGKEKGKTYQGKTEEVLKKRYDEVEVRLTEKAGDATEFASWASEQGFDAVIAMGGDGTLNETINGLAIHEKRPDFGFIPLGTVNDLARSVGIPLKPEKAIQALEKAKAIPMDIGRIGDQ”, the “soluble on expression in E. coli” value was “not soluble”.
With “MASTANMISQLKKLSIAEPAVAKDSHPDVNIVDLMRNYISQELSKISGVDSSLIFPALEWTNTMERGDLLIPIPRLRIKGANPKDLAVQWAEKFPCGDFLEKVEANGPFIQFFFNPQFLAKLVIPDILTRKEDYGSCKLVENKKVIIEFSSPNIAKPFHAGHLRSTIIGGFLANLYEKLGWEVIRMNYLGDWGKQFGLLAVGFERYGNEEALVKDPIHHLFDVYVRINKDIEEEGDSIPLEQSTNGKAREYFKRMEDGDEEALKIWKRFREFSIEKYIDTYARLNIKYDVYSGESQVSKESMLKAIDLFKEKGLTHEDKGAVLIDLTKFNKKLGKAIVQKSDGTTLYLTRDVGAAMDRYEKYHFDKMIYVIASQQDLHAAQFFEILKQMGFEWAKDLQHVNFGMVQGMSTRKGTVVFLDNILEETKEKMHEVMKKNENKYAQIEHPEEVADLVGISAVMIQDMQGKRINNYEFKWERMLSFEGDTGPYLQYAHSRLRSVERNASGITQEKWINADFSLLKEPAAKLLIRLLGQYPDVLRNAIKTHEPTTVVTYLFKLTHQVSSCYDVLWVAGQTEELATARLALYGAARQVLYNGMRLLGLTPVERM” the “soluble on expression in E. coli” value was “soluble”.
In the case of “MGSDKIHHHHHHMKVLFTFGGIPHYLNAMLNRLQAKGVEITVVSPKKGNTTIGKGVKMVEGGTYKHLTTPEKKMFYGKSAFPALPEIIAEEKPDIVVVGWPYFLQVFFQPALRKAMKSCNAKLVIREIPFQTPPYGKIKEYFKANPMHDEGMRLLSKGIGFYLRQWITARIRKYCYAQAAGTLNYSTAAYDILPSYGVKKEQIHVTYNSTDTEALLKEKESVLASPSILPPCDRRLLHIGRLVKWKRVDLLIEAFRKVATDYPEAELVIVGDGPELDNLRQQANDLQLADSIRFIGAVYDPKTLGAYMNESSIYVLAGMGGLSINDAMTYGMPVLCAVCDSTERDLVMEGKNGYFFKDGDADSLAGRIREMFESPERCKEMGKESERMIREKINMETVSERYLKAFQEILRLTHLRDSGN”, the “soluble on expression in E. coli” value was “not soluble”.
In the case of “MEIIKISPRGYCYGVIDAMVIAKNASLDPNLPRPIHILGMIVHNKHVTDAFESIGIYTVDGANREEILDKITTGTVIFTAHGVSPSVKAKAVAKGLTTIDATCPDVLHTYNLILEKQAAGYEIIYIGKKGHPEPEGAYGTAPDVVHLVETKADIDALSLLSDKIFVTNQTTMSKWDVADLMHYIKGKFPKAIQHQEICMATQVRQEAVALQAKDADLTIVVGDPRSNNTARLAQVSIEKAGTKAYRIADITELDIEWIKDAKKVAVTAGASTPTQLVREVLLFLEQFDAADKTTWKREHNQDFERILPKTKNKYMAEKRSQRLAHLKNGGSLEHHHHHH”, the “soluble on expression in E. coli” value was “not soluble”.
With “MADIQGEDLESLYGYAKQLFDGGEIAAARNVYQLLSTLDHWNFDYLLALGLCHQRLGAHNEAVVCFGRAGLIKVDDPRAAFYAGISYRLDGNAEYASKAFKAAINWCGEQIDYQAIKASAVDMLALQQEEVPLEHHHHHH” the “soluble on expression in E. coli” value was “soluble”.
For “SNAMAKNKLLRMDNVSIVVESLDNAISFFEEIGLNLEGRANVEGEWAGRVTGLGSQCVEIAMMVTPDGHSRIELSRFLTPPTIADHRTAPVNALGYLRVMFTVEDIDEMVSRLTKHGAELVGEVVQYENSYRLCYIRGVEGILIGLAEELGNK”, the “soluble on expression in E. coli” value was “soluble”.
In the case of “VSAADTAEDLPEQFRIRRDKRARLLAQGRDPYPVAVPRTHTLAEVRAAHPDLPIDTATEDIVGVAGRVIFARNSGKLCFATLQDGDGTQLQVMISLDKVGQAALDAWKADVDLGDIVYVHGAVISSRRGELSVLADCWRIAAKSLRPLPVAHKEMSEESRVRQRYVDLIVRPEARAVARLRIAVVRAIRTALQRRGFLEVETPVLQTLAGGAAARPFATHSNALDIDLYLRIAPELFLKRCIVGGFDKVFELNRVFRNEGADSTHSPEFSMLETYQTYGTYDDSAVVTRELIQEVADEAIGTRQLPLPDGSVYDIDGEWATIQMYPSLSVALGEEITPQTTVDRLRGIADSLGLEKDPAIHDNRGFGHGKLIEELWERTVGKSLSAPTFVKDFPVQTTPLTRQHRSIPGVTEKWDLYLRGIELATGYSELSDPVVQRERFADQARAAAAGDDEAMVLDEDFLAALEYGMPPCTGTGMGIDRLLMSLTGLSIRETVLFPIVRPHSN”, the “soluble on expression in E. coli” value was “not soluble”.
In the case of “MDLRSALEKTNIIKSYKLHFLIRYTTSRFEVKEPFLAYLHMARQKDKLLPKCITPPNKKADPFTNDVSSYFTHTHTHTPCSPSLVYTYVNTTEKSPSKSPKHKNILPFNFTK”, the “soluble on expression in E. coli” value was “not soluble”.
In the case of “MGSDKIHHHHHHMRYHIALVGRRNSGKSSLLNMLAGQQISIVSDIKGTTTDAVAKAYELQPLGPVTFYDTAGIDDEGTLGAMRVSATRRVLFRSDMALLVVDEQGLCPSDMALIDEIRQLQMPILMVFNKADICTPKAEDIAFCQNQSLPFIVVSAATGLAGKQLKQLMVELAPAEYKQEPLLAGDLYQAGDVILCVVPIDMAAPKGRLILPQVQILREALDRSAIAMVVKETELAQALSVVTPKLVISDAQAIKQVAAIVPDAVPLTTFSTLFARFKGDLAALATGADALDTLQDGDKVLISEACSHNVQEDDIGRVKLPRWINSYTGKQLEFVVTSGHDFPNDLEQYALVIHCGACMFNRNEMLRRIRECQRRQVPITNYGVAISKLQGVLPRVLTPFNRNPQQ”, the “soluble on expression in E. coli” value was “not soluble”.
For “MKTRLNKTSLNQALLPTSTAGSLPKPLWLAEPETLWSPWKLQGEELITGKHDALRLSLQDQQLAGIDIVSDGEQTRQHFVTTFIEHLNGVDFSKRKIVKIRDRYDASVPTVVGPVSRQKSVFVEDAKFLRKQTTQPIKWALPGPMTMIDTLYDDHYKSREKLAWEFAKILNEEAKELEAAGVDIIQFDEPAFNVFFDEVNDWGIACLERAIEGLKCETAVHICYGYGIKANTDWKKTLGSEWRQYEEVFPKLQKSNIDIISLECHNSHVPMELLELIRGKKVMVGAIDVATDTIETAEEVADTLRKALKFVDADKLYPCTNCGMTPLSHQVTRGKLNALSAGAEIVRKELLALR”, the “soluble on expression in E. coli” value was “soluble”.
With “MTEAKIVDISSKDIVLREAVVEGYIKLRKETIEKIKNKEVEKGDVITVAKTAGILAAKKTPELIPMCHPIPLEFVDVEIKIEEEGLRVISTVKAHYKTGVEMEALTATSVALLTIWDMVKKYEKDENGQYPYTEIKSIRVINKIKTYDDMK” the “soluble on expression in E. coli” value was “soluble”.
With “MGSDKIHHHHHHMKNKVGIMYDNISGNTGDVAIGISLRKIMKELKVDFDEILLNNIDVLKYNTVIIGGGHLLRENSDFFYDKFKLRGPNILNSVGVVGNPNDLQYLEEYKYVTFRSEGDRKKAGYLNKKSSVVPCTTMLLDDLQDFPIHIKRPAIGVHLIPNIFSKEEEGLFVKWASKLPYTIYFIPITHYNYDYIYMSKLSQRISNSRVLPIMKPLEIFTFIGKLDYLITCSLHGSIFSYIHNVPFILMEQEKSRFFLEDRGLQGYLFSNLKEIIGLTEKVINNPLDYSNLIVKDKKILEEHVENIKQIVPNNSTYILSKECTESDEITQLNLQNGILQINLSKLTYELEAYKKEIKGINFRLKDEESKHMYYKKELKKIYRSRGWKALKKFYSLKDFISKKINGA” the “soluble on expression in E. coli” value was “not soluble”.
In the case of “MSLNRVFIVDDDTLTCNLLKTIVEPIFGNVEAFQHPRAFLTLSLNKQDIIILDLMMPDMDGIEVIRHLAEHKSPASLILISGYDSGVLHSAETLALSCGLNVINTFTKPINTEVLTCFLTSLSNRQAQRELVSFNNDKANQGKFDFIPTEQDLREAIDKKQLILYYQPQINMKTECLHGAEVLVRWLHPEFGLIYPDKFIALAEQTGLIEQLSEEVIHLAIKQSVHWQKLNRATRLSINISAQNITSLKLPEQLRMLVKKYEIDPSMIVLELTESALMDSEVTSLDIFTRFRLKGFQLSIDDFGTGYSSLSQLHKIPFTELKIDQSFVTNMKQEKESMAIVETCIMLAHKLNMEAVAEGIEDKETWDLLSAEGCDIAQGYYIARPMPADQFDKWQFNEGHHHHHH”, the “soluble on expression in E. coli” value was “soluble”.
With “MVNEYKRIVLLRGLECINKHYFSLFKSLLARDLNLERDNQEQYTTIQIANMMEEKFPADSGLGKLIEFCEEVPALRKRAEILKKERSEGETSLEKNGQEAGPATPTSTTSHMLASERGETSATQEETSTAQAGTSTAQAGTSTAQAGTSTA” the “soluble on expression in E. coli” value was “soluble”.
With “KTSILLLLMIATALPSFGGNGNGNGTDSLQATRYVTRATMYGVGYTNVFDTYLSPQEYKGIEFRISRETMRMTTLGDGNVSVQNFFQANLAYTHNRVDNNNTFAGLVNWNYGLHYQFRITDNFKLLAGGMGDFNGGFVYNLRNTNNPASARAYINLDASGMAIWHTKIKNYPLALRYQVNLPVIGVMFSPHYGQSYYEIFTLGHASGVIRFTSLHNQPALRQMLSVDFPIRYTKMRLSYLCDLQQSKLNGIKTHTYSQVFMVGFVHDLFRIRNKNGTPLPPAVRAY” the “soluble on expression in E. coli” value was “not soluble”.
For “GPWKGGRGRAASLLPLNRALGTTRPHKEGEVPGVDYIFITVEDFMELEKSGALLESGTYEDNYYGTPKPPAEPAPLLLNVTDQILPGATPSAEGKRKRNKSVSNMEKASIEPPEEEEEERPVVNGNGVVVTPESSEHEDKSAGASGEMPSQPYPAPVYSQPEELKEQMDDTKPTKPEDNEEPDPLPDNWEMAYTEKGEVYFIDHNTKTTSWLDPRLAKKAKPPEECKENELPYGWEKIDDPIYGTYYVDHINRRTQFENPVLEAKRKLQQHNMPHTELGTKPLQAPGFREKPLFTRDASQLKGTFLSTTLKKSNMGFGFTIIGGDEPDEFLQVKSVIPDGPAAQDGKMETGDVIVYINEVCVLGHTHADVVKLFQSVPIGQSVNLVLCRGYPLPFDPEDPANSMVPPLAIMERPPPVMVNGRHNYETYLEYISRTSQSVPDITDRPPHSLHSMPTDGQLDGTYPPPVHDDNVSMASSGATQAELMTLTIVKGAQGFGFTIADSPTGQRVKQILDIQGCPGLCEGDLIVEINQQNVQNLSHTEVVDILKDCPIGSETSLIIHRGGFFSPWKTPKPIMDRWENQGSPQTSLSAPAIPQNLPFPPALHRSSFPDSTEAFDPRKPDPYELYEKSRAIYESRRPDYKELDVHLRRMESGFGFRILGGDEPGQPILIGAVIAMGSADRDGRLHPGDELVYVDGIPVAGKTHRYVIDLMHHAARNGQVNLTVRRKVLCGGEPCPENGRSPGSVSTHHSSPRSDYATYTNSNHAAPSSNASPPEGFASHSLQTSDVVIHRKENEGFGFVIISSLNRPESGSTITVPHKIGRIIDGSPADRCAKLKVGDRILAVNGQSIINMPHADIVKLIKDAGLSVTLRIIPQEELNSPTSAPSSEKQSPMAQQSPLAQQSPLAQPSPATPNSPIAQPAPPQPLQLQGHENSYRSEVKARQDVKPDIRQPPFTDYRQPPLDYRQPPGGDYQQPPPLDYRQPPLLDYRQHSPDTRQYPLSDYRQPQDFDYFTVDMEKGAKGFGFSIRGGREYKMDLYVLRLAEDGPAIRNGRMRVGDQIIEINGESTRDMTHARAIELIKSGGRRVRLLLKRGTGQVPEYDEPAPWSSPAAAAPGLPEVGVSLDDGLAPFSPSHPAPPSDPSHQISPGPTWDIKREHDVRKPKELSACGQKKQRLGEQRERSASPQRAARPRLEEAPGGQGRPEAGRPASEARAPGLAAADAADAARAGGKEAPRAAAGSELCRREGPGAAPAFAGPGGGGSGALEAEGRAGARAGPRPGPRPPGGAPARKAAVAPGPWKVPGSDKLPSVLKPGASAASR”, the “soluble on expression in E. coli” value was “soluble”.
